Consider one substance from publication doi:10.1101/494930.

For assay [1], the target named is BiP-His6 (WT-BiP, aa 19-637) (human) (UniProt P11021). The assay can be described thus: BLI. Background: Biolayer interferometry detects binding as a change in optical thickness at a sensor tip.
Assay [2] shares this target. The assay is described as follows: BLI. This is another data set of the same source.

Where two headings read alike, the source gives them in different places.

Sequence of BiP-His6 (WT-BiP, aa 19-637) (human) (P11021 19-637): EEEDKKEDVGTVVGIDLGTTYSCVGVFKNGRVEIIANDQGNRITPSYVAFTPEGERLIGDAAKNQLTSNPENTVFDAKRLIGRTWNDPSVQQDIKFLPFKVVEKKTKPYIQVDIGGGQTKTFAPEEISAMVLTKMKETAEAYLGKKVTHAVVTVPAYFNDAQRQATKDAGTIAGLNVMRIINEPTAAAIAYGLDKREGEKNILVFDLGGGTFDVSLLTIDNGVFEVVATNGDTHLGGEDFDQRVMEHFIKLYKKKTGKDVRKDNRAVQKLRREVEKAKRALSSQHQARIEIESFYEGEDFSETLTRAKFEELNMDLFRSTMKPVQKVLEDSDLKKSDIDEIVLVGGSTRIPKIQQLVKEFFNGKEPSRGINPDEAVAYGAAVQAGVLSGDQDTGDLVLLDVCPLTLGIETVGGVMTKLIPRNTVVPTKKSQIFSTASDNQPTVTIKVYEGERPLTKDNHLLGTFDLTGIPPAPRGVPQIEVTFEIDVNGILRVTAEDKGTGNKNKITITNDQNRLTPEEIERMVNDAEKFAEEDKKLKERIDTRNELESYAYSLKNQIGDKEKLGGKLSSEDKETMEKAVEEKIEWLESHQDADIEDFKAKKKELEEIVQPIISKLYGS

On to “E234G-HYPE (aa 102-458) (from UniProt Q9BVA6) (enzyme)”, for which the Kd in assay [1] is 18 µM; in assay [2], 10.2 µM.

Broadly, the Kd is a measure of binding affinity in units of concentration.
